Results as given in PMC11481574.
Several values for one entry are separate records, joined by “and”; a condition that tells them apart may be missing. Identical values can stand only once.

Biological target: Vibrio His-FliFG fusion protein with the FliG-G214S mutation (Vibrio alginolyticus)
Assay: cryo-EM structure; single-particle cryo-EM of the purified, concentrated MS-ring in buffer with LMNG; grids frozen after blotting at 4°C, 100% humidity; two classes with 35- or 34-fold rotational symmetry

Vibrio His-FliFG fusion protein with the FliG-G214S mutation
stoichiometry N: 35 and 34
